Measured values published in article PMC6219536, “Strategic single point mutation yields a solvent- and salt-stable transaminase from Virgibacillus sp. in soluble form” (Scientific Reports, 2018).

Experiments:
[1] = molecular target: VbTA T16F (transaminase from Virgibacillus sp. 21D, T16F mutant) (Virgibacillus sp. 21D); experiment: SEC; Superdex 200 (10/300) GL, 20 mM phosphate buffer pH 8.0, 150 mM NaCl, 0.2 mL/min, 4 °C, calibrated with MW markers
[2] = molecular target: T1, VbTA T16F (Virgibacillus pantothenticus, UniProt A0A4P1LYG1); experiment: X-ray crystal structure, […] Å; assay type: binding; conditions: active site; non-covalent, no aldimine bond with K273
T1 construct: N-terminal His-tag (pET100-D-TOPO), codon-optimised, E. coli BL21(DE3), His-trap purified; native 448 residues (1350 bp); homodimer 104 kDa; residues 2-444 in crystal
T1 sequence (A0A4P1LYG1 entry or part of it, stated change not applied): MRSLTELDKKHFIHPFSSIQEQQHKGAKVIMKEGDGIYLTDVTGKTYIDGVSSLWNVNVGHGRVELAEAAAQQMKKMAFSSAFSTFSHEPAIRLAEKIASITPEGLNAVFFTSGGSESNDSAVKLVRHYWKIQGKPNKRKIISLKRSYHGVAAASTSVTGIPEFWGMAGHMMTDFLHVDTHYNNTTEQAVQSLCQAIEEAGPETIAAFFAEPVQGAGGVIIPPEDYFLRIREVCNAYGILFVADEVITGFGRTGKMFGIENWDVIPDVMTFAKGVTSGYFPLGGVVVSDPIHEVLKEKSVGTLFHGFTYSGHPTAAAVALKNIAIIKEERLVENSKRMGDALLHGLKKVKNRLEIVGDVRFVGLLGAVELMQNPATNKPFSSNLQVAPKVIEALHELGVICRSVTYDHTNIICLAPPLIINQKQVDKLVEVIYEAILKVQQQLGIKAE

stoichiometry N [1] | Molecule | X-ray crystal structure, 2.0 Å [2]
2 | VbTA T16F (transaminase from Virgibacillus sp. 21D, T16F mutant) (enzyme) | 
 | Cc1ncc(COP(=O)(O)O)c(C=O)c1O [PLP] | One molecule of PLP was bound at the active site
